Measured values: the Human Domainome abundance scans (Beltran et al. 2025)

B1: CD2-associated protein, residues 271 to 331; numbered along this chain, Q9Y5K6 (parent)
chain: KEYCRTLFAYEGTNEDELTFKEGEIIHLISKETGEAGWWRGELNGKEGVFPDNFAVQINEL

Variants of: B1
Assay: abundance fitness (aPCA) (normalised: wild type 0, dead -1); higher = more abundant; growth selection in yeast, the domain comes from the species named
Conditions: Homo sapiens

Abundance fitness of substitutions, site by site:
R40: E -0.604; N -0.706; D -0.546; Q -0.3; I -0.547; F -0.16; Y -0.195; L -0.009; C -0.332; K 0.014; S -0.609; A -0.426; H -0.296; V -0.513; W -0.377
G37: F -0.492; N -0.747; R -0.651; K -0.403; L -0.884; S -0.718; D -0.617; V -0.647; H -0.306; Y -0.898; P -0.852; W -1.08; M -0.819; I -0.613; E -0.368; T -0.416; Q -0.428
E42: V -0.159; I -0.026; L -0.218; D -0.298; N -0.078; F -0.569; C -0.201; M -0.02; P -0.981; A 0.006; W -0.313; K -0.011; S -0.05; H -0.419; T -0.185; Q -0.12; Y -0.567; R -0.099
A36: Q 0.036; W -0.22; T -0.044; K -0.008; Y -0.334; P 0.114; L -0.305; R -0.054; I -0.193; V -0.03; M -0.18
N44: G -0.029; W -0.568; I -0.787; E -0.043; T -0.518; R -0.073; C -0.273; V -0.791; L -0.287; Q -0.507; P -1.14; D -0.113; F -0.449; H -0.03; A -0.152; M -0.172; Y -0.363
L43: P -0.701; W -0.605; H -0.522; R -0.214; M -0.219; N -0.468; E -0.703; T -0.505; S -0.411; F -0.475; Q -0.682; A -0.285; D -0.458; V -0.308; C -0.26; I -0.004; Y -0.294; G -0.766; K -0.156
G45: H -0.343; C -0.322; V -0.845; K -0.438; L -0.858; W -0.829; I -0.453; T -0.746; E -0.448; A -0.437; M -0.695; R -0.617; S -0.376; F -0.408; N -0.359; Q -0.612; P -0.784
W38: V -0.249; M -0.17; S -0.675; I -0.361; C -0.345; N -0.787; R -0.216; Y -0.043; H -0.349; D -0.825; E -0.781; T -0.404; P -0.729; Q -0.3; K -0.034; F -0.145; G -0.559; A -0.502
W39: R -0.547; Y -0.579; L -0.532; H -0.623; A -0.328; M -0.278; I -0.851; K -0.536; N -0.734; D -0.941; G -0.615; Q -0.661; C -0.48; T -0.696; V -0.519; E -0.663; F -0.513; P -0.724
G41: L -0.747; N -0.881; V -1.06; R -0.909; Q -0.657; H -0.746; C -1.07; M -1.01; W -1.14; P -0.605; D -0.616; F -0.949; S -0.71; Y -0.938; I -1.08; A -0.703; T -0.636
